Sequences and labels used below:
T1: CD52 human leukocyte antigen (human, UniProt P31358 25-36)
T1 construct: whole, on cells; also called CD52 antigen
T1 chain (looked up): GQNDTSQTSSPS

B1: DIVH2/DIVK2 (antibody, human IgG1, V domains shown)
VH: EVQLLESGGGLVQPGGSLRLSCAGSGFTFTDFYMNWIRQPPGKAPEWIGFIRDKAKGYTTEYNPSVKGRFTISRDNSKNTLYLQMNSLRAEDTAVYYCAREGHTAAPFDYWGQGTLVTVSS
VL: DIQMTQSPSSLSASVGDRVTITCKASQNIDKYLNWYQQKPGKAPKLLIYNTNNLQTGVPSRFSGSGSGTDFTLTISSLQPEDIATYYCLQHISRPRTFGTGTKLELK
notes: also called DIVH2IDIVK2; DIVHv2/DIVKv2
B2: DIVH1/DIVK1 (antibody, human IgG1, V domains shown)
VH: EVQLLESGGGLVQPGGSLRLSCAGSGFTFTDFYMNWVRQAPGKGLEWVGFIRDKAKGYTTEYNPSVKGRFTISRDNSKNTLYLQMNSLRAEDTAVYYCAREGHTAAPFDYWGQGTLVTVSS
VL: DIQMTQSPSSLSASVGDRVTITCRASQNIDKYLNWYQQKPGKAPKSLIYNTNNLQSGVPSRFSGSGSGTDFTLTISSLQPEDIATYYCLQHISRPRTFGTGTKLELK
notes: also called DIVHv1/DIVKv1
B3: DIVH2/DIVK1 (antibody, human IgG1, V domains shown)
VH: EVQLLESGGGLVQPGGSLRLSCAGSGFTFTDFYMNWIRQPPGKAPEWIGFIRDKAKGYTTEYNPSVKGRFTISRDNSKNTLYLQMNSLRAEDTAVYYCAREGHTAAPFDYWGQGTLVTVSS
VL: DIQMTQSPSSLSASVGDRVTITCRASQNIDKYLNWYQQKPGKAPKSLIYNTNNLQSGVPSRFSGSGSGTDFTLTISSLQPEDIATYYCLQHISRPRTFGTGTKLELK
notes: also called DIVHv2/DIVKv1
B4: DIVH1/DIVK2 (antibody, human IgG1, V domains shown)
VH: EVQLLESGGGLVQPGGSLRLSCAGSGFTFTDFYMNWVRQAPGKGLEWVGFIRDKAKGYTTEYNPSVKGRFTISRDNSKNTLYLQMNSLRAEDTAVYYCAREGHTAAPFDYWGQGTLVTVSS
VL: DIQMTQSPSSLSASVGDRVTITCKASQNIDKYLNWYQQKPGKAPKLLIYNTNNLQTGVPSRFSGSGSGTDFTLTISSLQPEDIATYYCLQHISRPRTFGTGTKLELK
notes: also called DIVHv1/DIVKv2
B5: DIVH3/DIVK2 (antibody, human IgG1, V domains shown)
VH: EVKLQESGGGLVQPGGSMRISCSGSGFTFTDFYMNWIRQPPGKGPEWIGFIRDKAKGYTTEYNPSVKGRFTISRDNTQNTLHLQANTLRAEDTAVYYCAREGHTAAPFDYWGQGTTVTVSS
VL: DIQMTQSPSSLSASVGDRVTITCKASQNIDKYLNWYQQKPGKAPKLLIYNTNNLQTGVPSRFSGSGSGTDFTLTISSLQPEDIATYYCLQHISRPRTFGTGTKLELK
notes: also called DIVHv3/DIVKv2
B6: DIVH1/DIVK4 (antibody, human IgG1, V domains shown)
VH: EVQLLESGGGLVQPGGSLRLSCAGSGFTFTDFYMNWVRQAPGKGLEWVGFIRDKAKGYTTEYNPSVKGRFTISRDNSKNTLYLQMNSLRAEDTAVYYCAREGHTAAPFDYWGQGTLVTVSS
VL: DIQMTQSPSSLSASVGDRVTITCKASQNIDKYLNWYQQKPGKAPKSLIYNTNNLQTGVPSRFSGSGSGTDFTLTISSLQPEDIATYYCLQHISRPRTFGTGTKLELK
notes: also called DIVHv1/DIVKv4
B7: DIVH5/DIVK2 (antibody, human IgG1, V domains shown)
VH: EVQLLESGGGLVQPGGSLRLSCAGSGFTFTDFYMNWIRQPPGKAPEWLGFIRDKAKGYTTEYNPSVKGRFTISRDNSKNTLYLQMNSLRAEDTAVYYCAREGHTAAPFDYWGQGTLVTVSS
VL: DIQMTQSPSSLSASVGDRVTITCKASQNIDKYLNWYQQKPGKAPKLLIYNTNNLQTGVPSRFSGSGSGTDFTLTISSLQPEDIATYYCLQHISRPRTFGTGTKLELK
notes: also called DIVHv5/DIVKv2
B8: DIVH5/DIVK1 (antibody, human IgG1, V domains shown)
VH: EVQLLESGGGLVQPGGSLRLSCAGSGFTFTDFYMNWIRQPPGKAPEWLGFIRDKAKGYTTEYNPSVKGRFTISRDNSKNTLYLQMNSLRAEDTAVYYCAREGHTAAPFDYWGQGTLVTVSS
VL: DIQMTQSPSSLSASVGDRVTITCRASQNIDKYLNWYQQKPGKAPKSLIYNTNNLQSGVPSRFSGSGSGTDFTLTISSLQPEDIATYYCLQHISRPRTFGTGTKLELK
notes: also called DIVHv5/DIVKv1
B9: DIVH4/DIVK3 (antibody, human IgG1, V domains shown)
VH: EVQLLESGGGLVQPGGSLRLSCAGSGFTFTDFYMNWVRQAPGKGLEWVGFIRDKAKGYTTEYNPSVKGRFTISRDNAKNSLYLQMNSLRAEDTAVYYCAREGHTAAPFDYWGQGTLVTVSS
VL: DIQMTQSPSSLSASVGDRVTITCRASQNIDKYLNWYQQKPGKAPKLLIYNTNNLQSGVPSRFSGSGSGTDFTLTISSLQPEDIATYYCLQHISRPRTFGTGTKLELK
notes: also called DIVHv4/DIVKv3
B10: DIVH4/DIVK4 (antibody, human IgG1, V domains shown)
VH: EVQLLESGGGLVQPGGSLRLSCAGSGFTFTDFYMNWVRQAPGKGLEWVGFIRDKAKGYTTEYNPSVKGRFTISRDNAKNSLYLQMNSLRAEDTAVYYCAREGHTAAPFDYWGQGTLVTVSS
VL: DIQMTQSPSSLSASVGDRVTITCKASQNIDKYLNWYQQKPGKAPKSLIYNTNNLQTGVPSRFSGSGSGTDFTLTISSLQPEDIATYYCLQHISRPRTFGTGTKLELK
notes: also called DIVHv4/DIVKv4
B11: DIVH2/DIVK3 (antibody, human IgG1, V domains shown)
VH: EVQLLESGGGLVQPGGSLRLSCAGSGFTFTDFYMNWIRQPPGKAPEWIGFIRDKAKGYTTEYNPSVKGRFTISRDNSKNTLYLQMNSLRAEDTAVYYCAREGHTAAPFDYWGQGTLVTVSS
VL: DIQMTQSPSSLSASVGDRVTITCRASQNIDKYLNWYQQKPGKAPKLLIYNTNNLQSGVPSRFSGSGSGTDFTLTISSLQPEDIATYYCLQHISRPRTFGTGTKLELK
notes: also called DIVHv2/DIVKv3
B12: DIVH4/DIVK2 (antibody, human IgG1, V domains shown)
VH: EVQLLESGGGLVQPGGSLRLSCAGSGFTFTDFYMNWVRQAPGKGLEWVGFIRDKAKGYTTEYNPSVKGRFTISRDNAKNSLYLQMNSLRAEDTAVYYCAREGHTAAPFDYWGQGTLVTVSS
VL: DIQMTQSPSSLSASVGDRVTITCKASQNIDKYLNWYQQKPGKAPKLLIYNTNNLQTGVPSRFSGSGSGTDFTLTISSLQPEDIATYYCLQHISRPRTFGTGTKLELK
notes: also called DIVHv4/DIVKv2
B13: DIVH4/DIVK1 (antibody, human IgG1, V domains shown)
VH: EVQLLESGGGLVQPGGSLRLSCAGSGFTFTDFYMNWVRQAPGKGLEWVGFIRDKAKGYTTEYNPSVKGRFTISRDNAKNSLYLQMNSLRAEDTAVYYCAREGHTAAPFDYWGQGTLVTVSS
VL: DIQMTQSPSSLSASVGDRVTITCRASQNIDKYLNWYQQKPGKAPKSLIYNTNNLQSGVPSRFSGSGSGTDFTLTISSLQPEDIATYYCLQHISRPRTFGTGTKLELK
notes: also called DIVHv4/DIVKv1
B14: DIVH2/DIVK4 (antibody, human IgG1, V domains shown)
VH: EVQLLESGGGLVQPGGSLRLSCAGSGFTFTDFYMNWIRQPPGKAPEWIGFIRDKAKGYTTEYNPSVKGRFTISRDNSKNTLYLQMNSLRAEDTAVYYCAREGHTAAPFDYWGQGTLVTVSS
VL: DIQMTQSPSSLSASVGDRVTITCKASQNIDKYLNWYQQKPGKAPKSLIYNTNNLQTGVPSRFSGSGSGTDFTLTISSLQPEDIATYYCLQHISRPRTFGTGTKLELK
notes: also called DIVHv2/DIVKv4
B15: DIVH1/DIVK5 (antibody, human IgG1, V domains shown)
VH: EVQLLESGGGLVQPGGSLRLSCAGSGFTFTDFYMNWVRQAPGKGLEWVGFIRDKAKGYTTEYNPSVKGRFTISRDNSKNTLYLQMNSLRAEDTAVYYCAREGHTAAPFDYWGQGTLVTVSS
VL: DIQMTQSPSSLSASVGDRVTITCKASQNIDKYLNWYQQKPGKSPKLLIYNTNNLQTGVPSRFSGSGSGTDFTLTISSLQPEDIATYYCLQHISRPRTFGTGTKLELK
notes: also called DIVHv1/DIVKv5
B16: DIVH4/DIVK5 (antibody, human IgG1, V domains shown)
VH: EVQLLESGGGLVQPGGSLRLSCAGSGFTFTDFYMNWVRQAPGKGLEWVGFIRDKAKGYTTEYNPSVKGRFTISRDNAKNSLYLQMNSLRAEDTAVYYCAREGHTAAPFDYWGQGTLVTVSS
VL: DIQMTQSPSSLSASVGDRVTITCKASQNIDKYLNWYQQKPGKSPKLLIYNTNNLQTGVPSRFSGSGSGTDFTLTISSLQPEDIATYYCLQHISRPRTFGTGTKLELK
notes: also called DIVHv4/DIVKv5
B17: DIVH1/DIVK3 (antibody, human IgG1, V domains shown)
VH: EVQLLESGGGLVQPGGSLRLSCAGSGFTFTDFYMNWVRQAPGKGLEWVGFIRDKAKGYTTEYNPSVKGRFTISRDNSKNTLYLQMNSLRAEDTAVYYCAREGHTAAPFDYWGQGTLVTVSS
VL: DIQMTQSPSSLSASVGDRVTITCRASQNIDKYLNWYQQKPGKAPKLLIYNTNNLQSGVPSRFSGSGSGTDFTLTISSLQPEDIATYYCLQHISRPRTFGTGTKLELK
notes: also called DIVHv1/DIVKv3
B18: DIVH2/DIVK5 (antibody, human IgG1, V domains shown)
VH: EVQLLESGGGLVQPGGSLRLSCAGSGFTFTDFYMNWIRQPPGKAPEWIGFIRDKAKGYTTEYNPSVKGRFTISRDNSKNTLYLQMNSLRAEDTAVYYCAREGHTAAPFDYWGQGTLVTVSS
VL: DIQMTQSPSSLSASVGDRVTITCKASQNIDKYLNWYQQKPGKSPKLLIYNTNNLQTGVPSRFSGSGSGTDFTLTISSLQPEDIATYYCLQHISRPRTFGTGTKLELK
notes: also called DIVHv2/DIVKv5; CAMPATH-1G DIVHv2/DIVKv5
B19: DIVH5/DIVK3 (antibody, human IgG1, V domains shown)
VH: EVQLLESGGGLVQPGGSLRLSCAGSGFTFTDFYMNWIRQPPGKAPEWLGFIRDKAKGYTTEYNPSVKGRFTISRDNSKNTLYLQMNSLRAEDTAVYYCAREGHTAAPFDYWGQGTLVTVSS
VL: DIQMTQSPSSLSASVGDRVTITCRASQNIDKYLNWYQQKPGKAPKLLIYNTNNLQSGVPSRFSGSGSGTDFTLTISSLQPEDIATYYCLQHISRPRTFGTGTKLELK
notes: also called DIVHv5/DIVKv3

This assay deals with T1, CD52 human leukocyte antigen. The assay is described as follows: FACS on HUT-78 cells (CD52+), FITC anti-human IgG Fc, median fluorescence, 4-parameter fit; titre = 50% of maximum binding. On the procedure: Human T-cell lymphoma cell line HUT-78 is CD52 positive and was used to assess binding of the modified antibodies of the present invention. In the present example, different concentrations of test antibody were incubated with the cells and the amount of bound antibody was assessed following incubation with a fluorescent-labelled reporter reagent. The reporter is measured using a fluorescence activated cell sorter (FACS).
For detection, the cells were incubated for 1 hour on ice with a 1:1000 dilution of FITC-labelled anti-human IgG Fc domain. This reagent is a goat anti-human IgG (Fc specific) obtained from Sigma (Poole, UK). The cells were washed as previously and re-suspended in 100 μl of PBS/2% FBS and transferred to 4 ml FACS tubes (Becton Dickinson) containing 900 μl of PBS/2% FBS/Propidium Iodide (1:1000). The cells were analysed using a conventional Becton Dickenson FACS Calibur instrument.
The binding of the test and control antibodies was determined using the Median Fluorescence value. The saturating concentration of antibody was determined from plots of the Median Fluorescence—Zero Antibody Median Fluorescence versus Concentration of antibody. The binding curves were fitted to a logistic 4 parameter sigmoidal equation using SigmaPlot, giving an excellent fit with 95% confidence levels.
Take B1: the EC50 (in general, the concentration giving half of the maximal effect) is 3.7 µg/mL.
In the case of B2 it was 2.99 µg/mL.
In the case of B3 it was 5.56 µg/mL; in that of B4, 1.66 µg/mL.
The same measure for B5: 17.8 µg/mL; for B6: 3.45 µg/mL.
Turning to B7, the EC50 stood at 2.45 µg/mL.
The same measure for B8: 4.01 µg/mL.
In the case of B9 it was 2.28 µg/mL.
The same measure for B10: 8.54 µg/mL; for B11: 3.89 µg/mL.
B12 came in with an EC50 of 1.59 µg/mL.
In the case of B13 it was 4.43 µg/mL.
The same measure for B14: 6.21 µg/mL; for B15: 1.85 µg/mL; for B16: 2.39 µg/mL.
In the case of B17 it was 1.71 µg/mL; in that of B18, 1.18 µg/mL.
B19: it took 2.55 µg/mL to reach a half-maximal effect (EC50).

The record behind these values is US20050152898A1 (BIOVATION, published 2005).
